Results published in PMC12618484 (Nature Communications, 2025).
Residue numbers refer to the chain shown, from its start. Names and notes keep the numbering of the source.

Key:
[1] = molecular target: T1, dihydrolipoamide dehydrogenase (DLD) (Homo sapiens, UniProt P09622); assay: bio-layer interferometry and SPR; assay type: binding
T1 sequence (P09622 36-509): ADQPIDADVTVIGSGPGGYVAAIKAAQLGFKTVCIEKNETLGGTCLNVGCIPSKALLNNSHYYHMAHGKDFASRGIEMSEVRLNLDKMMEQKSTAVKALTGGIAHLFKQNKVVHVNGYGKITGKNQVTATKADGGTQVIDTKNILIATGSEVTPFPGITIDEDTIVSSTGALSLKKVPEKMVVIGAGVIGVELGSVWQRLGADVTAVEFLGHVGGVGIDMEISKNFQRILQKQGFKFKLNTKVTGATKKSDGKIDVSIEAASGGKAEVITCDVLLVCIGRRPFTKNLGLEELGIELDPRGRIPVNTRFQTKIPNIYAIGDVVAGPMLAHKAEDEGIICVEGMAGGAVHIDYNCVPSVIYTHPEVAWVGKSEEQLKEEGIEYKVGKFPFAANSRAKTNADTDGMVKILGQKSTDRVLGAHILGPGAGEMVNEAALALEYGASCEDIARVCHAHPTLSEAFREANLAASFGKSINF

cross-linking = molecular target: the molecule itself; assay: cross-linking

O=C(O)CCCCC(CCSCc1ccccc1)SCc1ccccc1 (stereo not drawn) [devimistat]
Kd [1]: 500 to 600 nM

B1: HA-tagged DLD-K430Q (enzyme, human, UniProt P09622 36-509, looked up)
chain: T1 sequence (P09622 36-509) with K395Q
stoichiometry N (cross-linking): 2

B2: HA-tagged DLD-K430R (enzyme, human, UniProt P09622 36-509, looked up)
chain: T1 sequence (P09622 36-509) with K395R
stoichiometry N (cross-linking): 2
